Assay results taken from patent US12006343B2, “C4BP-based compounds for treating immunological diseases” (FUNDACIO INSTITUT D'INVESTIGACIO BIOMEDICA DE BELLVITGE …, priority 2017, dated 2024).

Experiments:
[1] = tested on: human monocyte-derived DCs; experiment: Immunomodulatory activity over human monocyte-derived DCs: CD83/CD86 surface expression by flow cytometry after LPS maturation; type: cell-based; settings: MoDCs pre-incubated with 5 μg/ml protein, LPS challenge; FIG. 4
[2] = tested on: human monocyte-derived DCs; settings: negative control; Olivar et al. 2013; cited from earlier work

B1: C4BP(β+): major C4BP α7β1 plus minor C4BP α6β1 isoforms (in complex with ProS) purified from pooled human plasma; negative control (protein, UniProt P04003 49-597; P20851 18-252, looked up)
C4b-binding protein alpha …: NCGPPPTLSFAAPMDITLTETRFKTGTTLKYTCLPGYVRSHSTQTLTCNSDGEWVYNTFCIYKRCRHPGELRNGQVEIKTDLSFGSQIEFSCSEGFFLIGSTTSRCEVQDRGVGWSHPLPQCEIVKCKPPPDIRNGRHSGEENFYAYGFSVTYSCDPRFSLLGHASISCTVENETIGVWRPSPPTCEKITCRKPDVSHGEMVSGFGPIYNYKDTIVFKCQKGFVLRGSSVIHCDADSKWNPSPPACEPNSCINLPDIPHASWETYPRPTKEDVYVVGTVLRYRCHPGYKPTTDEPTTVICQKNLRWTPYQGCEALCCPEPKLNNGEITQHRKSRPANHCVYFYGDEISFSCHETSRFSAICQGDGTWSPRTPSCGDICNFPPKIAHGHYKQSSSYSFFKEEIIYECDKGYILVGQAKLSCSYSHWSAPAPQCKALCRKPELVNGRLSVDKDQYVEPENVTIQCDSGYGVVGPQSITCSGNRTWYPEVPKCEWETPEGCEQVLTGKRLMQCLPNPEDVKMALEVYKLSLEIEQLELQRDSARQSTLDKEL
C4b-binding protein beta chain: SDAEHCPELPPVDNSIFVAKEVEGQILGTYVCIKGYHLVGKKTLFCNASKEWDNTTTECRLGHCPDPVLVNGEFSSSGPVNVSDKITFMCNDHYILKGSNRSQCLEDHTWAPPFPICKSRDCDPPGNPVHGYFEGNNFTLGSTISYYCEDRYYLVGVQEQQCVDGEWSSALPVCKLIQEAPKPECEKALLAFQESKNLCEAMENFMQQLKESGMTMEELKYSLELKKAELKAKLL
modifications: in complex with protein S
notes: major C4BP α7β1 plus minor C4BP α6β1 isoforms (in complex with ProS) purified from pooled human plasma; negative control
**Q.** Which “semi-mature, anti-inflammatory phenotype conferred to LPS-matured MoDCs (immunomodulatory activity)” value [1] does the source give for B1 here?
**A.** The value was “inactive”.

**Q.** What about the immunomodulatory activity [2] of the same molecule?
**A.** The immunomodulatory activity was “no immunomodulatory activity”.
